Values joined by “and” are separate entries in the source; they are usually repeats but may differ in a detail not shown here. Equal values may be shown once. Bridges are numbered along the chain shown (N, C = ends). Where no end group is shown, it is not given here.
Assays:
[1] = TICA1 Ala-scan with intact disulfides, activity vs TICA1; conditions: single amino acid substituted by alanine
Text: Every single amino acid was substituted by alanine except for cysteine. […] See also FIG. 6.

h-FXIIa [2] = target: T1, h-FXIIa (human, UniProt P00748 20-615); assay: S2302 hydrolysis by h-FXIIa, fit of residual activity
T1 construct: also called factor XIIa
T1 sequence (looked up): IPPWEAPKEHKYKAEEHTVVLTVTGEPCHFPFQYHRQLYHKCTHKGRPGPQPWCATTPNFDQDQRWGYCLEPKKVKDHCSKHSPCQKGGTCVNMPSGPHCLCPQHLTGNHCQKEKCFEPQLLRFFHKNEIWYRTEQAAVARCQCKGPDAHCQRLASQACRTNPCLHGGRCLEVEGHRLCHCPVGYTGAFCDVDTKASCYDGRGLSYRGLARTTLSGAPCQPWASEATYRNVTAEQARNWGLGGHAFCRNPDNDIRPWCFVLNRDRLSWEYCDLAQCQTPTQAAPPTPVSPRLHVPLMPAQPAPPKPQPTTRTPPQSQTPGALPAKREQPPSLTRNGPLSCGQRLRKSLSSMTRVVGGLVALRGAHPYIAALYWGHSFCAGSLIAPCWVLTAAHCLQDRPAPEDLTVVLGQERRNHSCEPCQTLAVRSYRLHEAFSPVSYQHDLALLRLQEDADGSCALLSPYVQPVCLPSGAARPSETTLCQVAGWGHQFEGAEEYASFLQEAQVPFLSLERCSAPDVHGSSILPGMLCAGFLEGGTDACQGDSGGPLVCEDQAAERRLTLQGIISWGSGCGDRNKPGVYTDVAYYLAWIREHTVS
Procedure: (§1) Stock FXIIa was diluted 700× in BSA5. The inhibitor was diluted in BSA5 as indicated. Wells contained 70 μl diluted FXIIa (5 nM final), 70 μl inhibitor and 20 μl S2302 (475 or 462.5 μM final). The reaction was started after 5 min heating on the heating plate with S2302. Filters 405 nm and 490 nm reference. Found mΔA/min was multiplied by 2.14 to get the figure for a 1 cm path.
(§2) in which E=[FXIIa], Ki is the dissociation constant, I=[Inhibitor], kcat and Km are Michaelis constants and S=[S2302].

h-FXIIa [3] = target: T1, h-FXIIa; assay: S2302 hydrolysis by h-FXIIa (5.01 nM); inhibitor 30 min 95° C.
Procedure: as §1, with “ΔmA/min” for “mΔA/min”

h-FXIIa [4] = target: T1, h-FXIIa; assay: S2302 hydrolysis by h-FXIIa (5.01 nM); inhibitor kept at -80° C.
Procedure: as §1, with “ΔmA/min” for “mΔA/min”

h-FXIIa [5] = target: T1, h-FXIIa; assay: S2302 hydrolysis by h-FXIIa (5.01 nM); inhibitor at RT during 72 hrs
Procedure: as §1, with “ΔmA/min” for “mΔA/min”

h-FXIIa [6] = target: T1, h-FXIIa; assay: S2302 hydrolysis by h-FXIIa (5.01 nM); inhibitor kept at -80° C. (reference)
Procedure: as §1, with “ΔmA/min” for “mΔA/min”

h-FXIIa [7] = target: T1, h-FXIIa; assay: S2302 hydrolysis by h-FXIIa (5.01 nM); inhibitor 30 min 95° C., against -80° C.
Procedure: as §1, with “ΔmA/min” for “mΔA/min”

h-FXIIa [8] = target: T1, h-FXIIa; assay: S2302 hydrolysis by h-FXIIa (5.01 nM); inhibitor at RT during 72 hrs, against -80° C.
Procedure: as §1, with “ΔmA/min” for “mΔA/min”

h-FXIIa [9] = target: T1, h-FXIIa; assay: S2302 hydrolysis by h-FXIIa (5 nM), fit of residual activity; dissociation constant of the complex
Procedure: as §1, §2

[10] = target: T2, h-FXIIa (human), P00748; assay: cell-based or functional assay
T2 chain: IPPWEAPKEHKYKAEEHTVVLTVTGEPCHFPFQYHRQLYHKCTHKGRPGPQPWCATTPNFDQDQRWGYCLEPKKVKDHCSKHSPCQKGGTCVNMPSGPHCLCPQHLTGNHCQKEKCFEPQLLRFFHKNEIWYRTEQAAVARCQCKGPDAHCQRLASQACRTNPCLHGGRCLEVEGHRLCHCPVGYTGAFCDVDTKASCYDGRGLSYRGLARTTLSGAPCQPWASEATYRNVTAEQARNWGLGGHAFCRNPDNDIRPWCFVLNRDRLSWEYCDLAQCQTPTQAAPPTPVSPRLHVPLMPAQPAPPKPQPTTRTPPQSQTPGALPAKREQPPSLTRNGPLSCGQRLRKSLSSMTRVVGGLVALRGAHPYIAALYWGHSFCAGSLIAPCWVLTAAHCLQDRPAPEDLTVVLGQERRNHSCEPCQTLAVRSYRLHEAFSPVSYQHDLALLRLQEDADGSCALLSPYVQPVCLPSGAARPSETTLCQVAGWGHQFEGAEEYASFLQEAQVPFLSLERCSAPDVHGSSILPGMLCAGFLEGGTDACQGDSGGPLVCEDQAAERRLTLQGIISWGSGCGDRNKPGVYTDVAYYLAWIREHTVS

[11] = target: T2, h-FXIIa (human), …; assay: S2302 hydrolysis by h-FXIIa, fit of residual activity
[12] = target: T2, h-FXIIa (human), …; assay: S2302 hydrolysis by h-FXIIa (5.01 nM); inhibitor 30 min 95° C.
[13] = target: T2, h-FXIIa (human), …; assay: S2302 hydrolysis by h-FXIIa (5.01 nM); inhibitor kept at -80° C.
[14] = target: T2, h-FXIIa (human), …; assay: S2302 hydrolysis by h-FXIIa (5.01 nM); inhibitor at RT during 72 hrs
[15] = target: T2, h-FXIIa (human), …; assay: activity of TICA1 disulfide variants (FIG. 5), reference; assay not named
[16] = target: T2, h-FXIIa (human), …; assay: S2302 hydrolysis by h-FXIIa (5.01 nM); inhibitor kept at -80° C. (reference)
[17] = target: T2, h-FXIIa (human), …; assay: S2302 hydrolysis by h-FXIIa (5.01 nM); inhibitor 30 min 95° C., against -80° C.
[18] = target: T2, h-FXIIa (human), …; assay: FXIIa activity, total FXIIa 9.33 nM, 306 nM TICA1 added after 60 minutes at 95° C.
[19] = target: T2, h-FXIIa (human), …; assay: S2302 hydrolysis by h-FXIIa (5.01 nM); inhibitor at RT during 72 hrs, against -80° C.
[20] = target: T2, h-FXIIa (human), …; assay: S2302 hydrolysis by h-FXIIa (5 nM), fit of residual activity; dissociation constant of the complex
[21] = target: T2, h-FXIIa (human), …; assay: residual inhibitor activity after 60 minutes at 95° C., calculated from free FXIIa (total 9.33 nM)
h-FXIIa (human) = h-FXIIa (human) (UniProt P00748); assay: activity of TICA1 disulfide variants against TICA1 with 3 disulfides (FIG. 5); assay not named
h-FXIIa [22] = target: T1, h-FXIIa; assay: as above
h-FXIIa [23] = target: T1, h-FXIIa; assay: S2302 hydrolysis by F.XIIa; before heating

For “AVCPRILMKCKKDSDCLAECVCLEHGYCG [TICA1 Ala-scan analogue]”, the “Activity vs TICA1” value [1] was 7.5%.

With “RVCPAILMKCKKDSDCLAECVCLEHGYCG [TICA1 Ala-scan analogue]” the “Activity vs TICA1” value [1] was 0.009%.

“squash trypsin inhibitor (STI), the serpin from Cucurbita Maxima seeds” showed a Ki (h-FXIIa [2]) of 251 nM, a Ki (h-FXIIa [3]) of 264 nM and a Ki (h-FXIIa [4]) of 251 nM. The Ki (h-FXIIa [5]) was 267 nM, the Res. Act. (%) (h-FXIIa [6]) was 100% and the Res. Act. (%) (h-FXIIa [7]) was 105%. For the same molecule, the Res. Act. (%) (h-FXIIa [8]) was 106% and the Ki (h-FXIIa [9]) was 251 nM.

For “RVCARILMKCKKDSDCLAECVCLEHGYCG [TICA1 Ala-scan analogue]”, the “Activity vs TICA1” value [1] was 9.0%.

Work on RVCPRILMKCKKDSDCLAECVCLEHGYCG (modifications not checked) [TICA 1] yielded an Activity of FXIIa (mA/min) [10] of 33.5 mA/min, a Ki [11] of 25.5 nM and a Ki [12] of 24 nM. It also gave a Ki [13] of 26 nM, a Ki [14] of 26 nM and an activity (%) [15] of 100%. The Res. Act. (%) [16] was 100%, the Res. Act. (%) [17] was 94% and the Free FXIIa [18] was 3.93 nM. It also gave a Res. Act. (%) [19] of 102%, a Ki [20] of 25.5 nM and a Residual activity (%) [21] of 81.7%.

AAARVCPRILMKCKKDSDCLAECVCLEHGYCG (modifications not checked) [AAA-TICA1] gave a Ki [20] of 104 nM.

RVCPRILMKCKKDSDCLAECVCLEHGYCGAAA (modifications not checked) [TICA1-AAA] showed a Ki [20] of 377 nM.

In the case of RVCGIGPRPRLPWPRILMKCKKDSDCLAECVCLEHGYCG (modifications not checked) [PCTI], the Ki [20] is reported as 469000 nM.

For RVCPRILMKAKKDSDCLAECVALEHGYCG (disulfide 16-28, 3-20) [TICA1 with 2 disulfide bonds (C3-C20, C16-C28)], the activity (%) (h-FXIIa (human)) was 6.8%.

In the case of RVCPRILMKAKKDSDALAECVALEHGYAG (disulfide 3-20) [TICA1 with 1 disulfide bond (C3-C20)], the “activity (%)” value (h-FXIIa [22]) is reported as 0.003%.

In the case of RVAPRILMKCKKDSDALAEAVCLEHGYAG (disulfide 10-22) [TICA1 with 1 disulfide bond (C10-C22)], the “activity (%)” value (h-FXIIa [22]) is reported as 0.003%.

For RVAPRILMKAKKDSDCLAEAVALEHGYCG (disulfide 16-28) [TICA1 with 1 disulfide bond (C16-C28)], the “activity (%)” value (h-FXIIa [22]) was 0.006%.

With RVCPRILMKCKKDSDALAECVCLEHGYAG (disulfide 10-22, 3-20) [TICA1 with 2 disulfide bonds (C3-C20, C10-C22)] the “activity (%)” value (h-FXIIa [22]) was 0.2%.

For RVAPRILMKCKKDSDCLAEAVCLEHGYCG (disulfide 10-22, 16-28) [TICA1 with 2 disulfide bonds (C10-C22, C16-C28)], the “activity (%)” value (h-FXIIa [22]) was 0.3%.

With RVCPRILMECKKDSDCLAECVCLEHGYCG (disulfide (positions not given here), Synthetic, folded peptide) [TICA 2] the Ki (h-FXIIa [23]) was 0.355 µg/mL and 109 nM, the Ki (h-FXIIa [2]) was 109 nM and the Ki (h-FXIIa [3]) was 108 nM. For the same molecule, the Ki (h-FXIIa [4]) was 109 nM, the Ki (h-FXIIa [5]) was 114 nM and the “Res. Act. (%)” value (h-FXIIa [6]) was 100%. For the same molecule, the “Res. Act. (%)” value (h-FXIIa [7]) was 99%, the “Res. Act. (%)” value (h-FXIIa [8]) was 105% and the Ki (h-FXIIa [9]) was 109 nM.

With RVCPKILMECKKDSDCLAECICLEHGYCG (disulfide (positions not given here), Synthetic congener) [TICA 4] the Ki (h-FXIIa [23]) was 4.62 µg/mL and 1.42 µM, the Ki (h-FXIIa [2]) was 1420 nM and the Ki (h-FXIIa [3]) was 1340 nM. The Ki (h-FXIIa [4]) was 1420 nM, the Ki (h-FXIIa [5]) was 1400 nM and the “Res. Act. (%)” value (h-FXIIa [6]) was 100%. For the same molecule, the “Res. Act. (%)” value (h-FXIIa [7]) was 94%, the “Res. Act. (%)” value (h-FXIIa [8]) was 98% and the Ki (h-FXIIa [9]) was 1420 nM.

B1: TICA 3 (peptide)
peptide: HEERVCPRILMKCKKDSDCLAECVCLEHGYCG
notes: Synthetic congener; also called HEE-TICA1
For B1, the Ki (h-FXIIa [23]) was 10.1 µg/mL and 3.09 µM, the Ki (h-FXIIa [2]) was 3090 nM and the Ki (h-FXIIa [3]) was 3180 nM. For the same molecule, the Ki (h-FXIIa [4]) was 3090 nM, the Ki (h-FXIIa [5]) was 3130 nM and the “Res. Act. (%)” value (h-FXIIa [6]) was 100%. The “Res. Act. (%)” value (h-FXIIa [7]) was 103%, the “Res. Act. (%)” value (h-FXIIa [8]) was 101% and the Ki (h-FXIIa [9]) was 3090 nM.

B2: TICA 5 (peptide)
peptide: HEERVCPKILMECKKDSDCLAECICLEHGYCG
notes: Synthetic congener; also called HEE-TICA4
In the case of B2, the Ki (h-FXIIa [23]) is reported as 556 µg/mL and 171 µM, the Ki (h-FXIIa [2]) is reported as 171000 nM and the Ki (h-FXIIa [3]) is reported as 179000 nM. The Ki (h-FXIIa [4]) was 171000 nM, the Ki (h-FXIIa [5]) was 165000 nM and the “Res. Act. (%)” value (h-FXIIa [6]) was 100%. The “Res. Act. (%)” value (h-FXIIa [7]) was 105%, the “Res. Act. (%)” value (h-FXIIa [8]) was 96% and the Ki (h-FXIIa [9]) was 171000 nM.

Source: patent publication US20140296146A1, “Thermostable Inhibitors of Activation of the Blood Clotting System Through Contact with Foreign Surfaces” (Synapse B.V., priority 2011, published 2014)
